The text below walks through data of the RNAGym collection of RNA variant scans (doi:10.7554/elife.90254).

B1: OR4K15 (parent)
chain: GUUAACGGUCAUAGGCCAUGGAAACUAGGAGCACCAUUUCGCUGCCAGUGAAGAAAUGAACAAAGAAAAUCUGGGCCAGGCAGGCAUCAAAAGAAAUAGUCUUGCGCUCAACCAGAAAGUCUGUAAUCAUUUUAAGGGUA

The variants in this data set derive from B1. Briefly: self-cleavage, relative activity (ratio to wild type); higher = more cleavage; in vitro, sequencing; the parent is a self-cleaving ribozyme.
In the case of GUUAUCGGUCAUAGGCCAUGGAAACUAGGAGCACCAUUUCGCUGCCAGUGAAGUAAUGAACAAAGAAAAUCUGGGCCAGGCAGGCAUCAAAAGAAAUAGUCUUGCGCUCAACCAGAAAGUCUGUAAUCAUUUUAAGGGUA, the self-cleavage came to 1.7.

Turning to GUUAUCGGUCAUAGGCCAUGGAAACUAGGAGCACCAUUUCGCUGCCAGUGAAGAAAUGAACAAAGAAAAUCUGGGCCAGGCAGGCAUCAGAAGAAAUAGUCUUGCGCUCAACCAGAAAGUCUGUAAUCAUUUUAAGGGUA, the self-cleavage came to 0.78.

As for GUUAUCGGUCAUAGGCCAUGGAAACUAGGAGCACCAUUUCGCUGCCAGUGAAGAAAUGAACAAAGAAAAUCUGGGCCAGGCAGGCAUCAAAAGAAAUAGUCUUGCGCUUAACCAGAAAGUCUGUAAUCAUUUUAAGGGUA, the self-cleavage stood at 0.68.

Turning to GUUAGCGGUCAUAGGCCAUGGAAACUAGGAGCACCAUUUCGCUGCCAGUGAAGAAAUGAACAAAGAAAAUCUGGGCCAGGCAGGCAUCAAAAGAAAUAGUCUUGCGCUCAACCAGAAAGUCAGUAAUCAUUUUAAGGGUA, the self-cleavage is 1.34.

As for GUUAGCGGUCAUAGGCCAUGGAAACUAGGAGCACCAUUUCGCUGCCAGUGAAGAAAUGAACAAAGAAAAUCUGGGCCAGGCAGGCAUCAAAAGAAAUAGUCUUGCGCUCAACCAGAAAGUCCGUAAUCAUUUUAAGGGUA, the self-cleavage was 0.91.

In the case of GUUAUCGGUCAUAGGCCAUGGAAACUAGGAGCACCAUUUCGCUGCCAGUGUAGAAAUGAACAAAGAAAAUCUGGGCCAGGCAGGCAUCAAAAGAAAUAGUCUUGCGCUCAACCAGAAAGUCUGUAAUCAUUUUAAGGGUA, the self-cleavage is 0.66.

For GUUAUCGGUCAUAGGCCAUGGAAACUAGGAGCACCAUUUCGCUGCCAGUGAAGAAAUGAACCAAGAAAAUCUGGGCCAGGCAGGCAUCAAAAGAAAUAGUCUUGCGCUCAACCAGAAAGUCUGUAAUCAUUUUAAGGGUA, the self-cleavage was 1.64.

For the variant GUUAUCGGUCAUAGGCCAUGGAAACUAGGAGCACCAUUUCGCUGCCAGUGAAGAAAUGAACAAAGAAAAUCUGGGCCAGGCAGGCAUCAAAAGAAAUAGUCUUGCGCUCAACCAGAGAGUCUGUAAUCAUUUUAAGGGUA, the self-cleavage was found to be 1.74.

On to GUUAUCGGCCAUAGGCCAUGGAAACUAGGAGCACCAUUUCGCUGCCAGUGAAGAAAUGAACAAAGAAAAUCUGGGCCAGGCAGGCAUCAAAAGAAAUAGUCUUGCGCUCAACCAGAAAGUCUGUAAUCAUUUUAAGGGUA, for which the self-cleavage was found to be 1.27.

As to GUUAUCGGUCAUAGGCCAUGGGAACUAGGAGCACCAUUUCGCUGCCAGUGAAGAAAUGAACAAAGAAAAUCUGGGCCAGGCAGGCAUCAAAAGAAAUAGUCUUGCGCUCAACCAGAAAGUCUGUAAUCAUUUUAAGGGUA, the self-cleavage was 0.69.

Consider GUUAUCGGUCAUAGGCCAUGGAAACUAGGAGCACCAUUUCGAUGCCAGUGAAGAAAUGAACAAAGAAAAUCUGGGCCAGGCAGGCAUCAAAAGAAAUAGUCUUGCGCUCAACCAGAAAGUCUGUAAUCAUUUUAAGGGUA, for which the self-cleavage came out at 1.82.

As for GUUAUCGGUCAUAGGCCAUGGAAACUAGGAGCACCAUUUCGCUGCCAGUGAAGAAAUGAACAAAGAAAAUCUGGGCCAGGCAGGCAUCAAAAGAAAUAGUCUUGCGCUCAACCAGGAAGUCUGUAAUCAUUUUAAGGGUA, the self-cleavage was 1.13.

Take GUUAGCGGUCAUAGGCCAUGGAAACUAGGAGCACCAUUUCGCUGCCAGUGAAGAAAUGAACAAAGAAAAUCUGGGCCAGGCAGGCAUCAAAAGAAAAAGUCUUGCGCUCAACCAGAAAGUCUGUAAUCAUUUUAAGGGUA: the self-cleavage amounted to 1.57.

For the variant GUUAUCGGUCAUAGGCCAUGGAAACUAGGAGCACCAUUUCGCUGCCAGUGAAGAAAUGAACAAAGAAAAUCUGGGCCAGGCAGGCAUCAAAAGAAAUAGUCUUACGCUCAACCAGAAAGUCUGUAAUCAUUUUAAGGGUA, the self-cleavage was 0.09.

Regarding GUUAUCGGUCAUAGGCCAUGGAAACUAGGAGCACCAUUUCGCUGCCAGUGAAGAAAUGAACAAAGAAAAUCUGGGCCAGGCAGGCAUCAAAAGAAAUAGUCUUGCGCUCAACCAGAAAGUCUGUAAUCGUUUUAAGGGUA, the self-cleavage was 0.79.

As to GUUAUCGGUCAUAGGCCAUGGAAACCAGGAGCACCAUUUCGCUGCCAGUGAAGAAAUGAACAAAGAAAAUCUGGGCCAGGCAGGCAUCAAAAGAAAUAGUCUUGCGCUCAACCAGAAAGUCUGUAAUCAUUUUAAGGGUA, the self-cleavage was determined as 0.57.

Consider GUUAUCGGUCAUAGGCCAUGGAAACUAGGAGCACCAUUCCGCUGCCAGUGAAGAAAUGAACAAAGAAAAUCUGGGCCAGGCAGGCAUCAAAAGAAAUAGUCUUGCGCUCAACCAGAAAGUCUGUAAUCAUUUUAAGGGUA, for which the self-cleavage worked out at 1.1.

GUUAUCGGUCAUAGGCCAUGGAAACUAGGAGCACCAUUUCGCUGCCAGUGAAGAAAUGAACAAAGAAAAUCUGGGCCAGGCGGGCAUCAAAAGAAAUAGUCUUGCGCUCAACCAGAAAGUCUGUAAUCAUUUUAAGGGUA: the self-cleavage amounted to 0.6.

For GUUAUCGGUCAUAGGCCAUGGAAACUAGGAGCACCAUUUCGCUGCCAGUGAAGAAAUGAACAGAGAAAAUCUGGGCCAGGCAGGCAUCAAAAGAAAUAGUCUUGCGCUCAACCAGAAAGUCUGUAAUCAUUUUAAGGGUA, the self-cleavage was found to be 1.2.

As to GUUAGCGGUCAUAGGCCAUGGAAACUAGGAGCACCAUUUCGCUGCCAGUGAAGAAAUGAACAAAGAAAAUCUGGGCCAGGCAGGCAUCAAAAGAAAUAGUCUUGCGCCCAACCAGAAAGUCUGUAAUCAUUUUAAGGGUA, the self-cleavage was found to be 0.06.

Turning to GUUAGCGGUCAUAGGCCAUGGAAACUAGGAGCACCAUUUCGCUGCCAGUGAAGAAAUGAACAAAGAAAAUCUGGGCCAGGCAGGCAUCAAAAGAAAUAGUCUUGCGCACAACCAGAAAGUCUGUAAUCAUUUUAAGGGUA, the self-cleavage was determined as 0.05.

As to GUUAUCGGUCAUAGGCCAUGGAAACUAGGAGCACCAUUUCGCUGCCAGUGAAGAAAUGAACAAAGAAAAUCUGGGCCAGGCAGGCAUCAAAAGAAAUAGUCUUGCGCUCAACCAGAAAGUCUGUAGUCAUUUUAAGGGUA, the self-cleavage is 1.07.

GUUAUCGGUCAUAGGCCAUGGAAACUAGGAGCACCAUUUCGCUGCCAGUGAAGAAAUGAACAAAGAAAAUCUGGGCCAGGCAGGCAUCAAAAGGAAUAGUCUUGCGCUCAACCAGAAAGUCUGUAAUCAUUUUAAGGGUA: the self-cleavage stood at 1.51.

For GUUAUCGGUCAUAGGCCAUGGAAACUAGGAGCACCAUUUCGCUGCCGGUGAAGAAAUGAACAAAGAAAAUCUGGGCCAGGCAGGCAUCAAAAGAAAUAGUCUUGCGCUCAACCAGAAAGUCUGUAAUCAUUUUAAGGGUA, the self-cleavage is 1.

On to GUUAUCGGUCAUAGGCCAUGGAAACUAGGAGCACCUUUUCGCUGCCAGUGAAGAAAUGAACAAAGAAAAUCUGGGCCAGGCAGGCAUCAAAAGAAAUAGUCUUGCGCUCAACCAGAAAGUCUGUAAUCAUUUUAAGGGUA, for which the self-cleavage was found to be 2.27.

With GUUAUCGGUCAUAGGCCAUGGAAACUAGGAGCACCAUUUCGCUGCCAGUGAAGAAAUGAACAAAGAAAAUCUGGGCCAGGCAGGCAUCAAAAGAAAUAGUCUUGCGCUCAACCGGAAAGUCUGUAAUCAUUUUAAGGGUA, the self-cleavage stood at 0.49.

GUUAGCGGUCAUAGGCCAUGGAAACUAGGAGCACCAUUUCGCUGCCAGUGAAGAAAUGAACAAAGAAAAUCUGGGCCAGGCAGGCAUCAAAAGAAAUAGUCUUGCGCUCAACCAGAAAGCCUGUAAUCAUUUUAAGGGUA: the self-cleavage worked out at 0.86.

Take GUUAGCGGUCAUAGGCCAUGGAAACUAGGAGCACCAUUUCGCUGCCAGUGAAGAAAUGAACAAAGAAAAUCUGGGCCAGGCAGGCAUCAAAAGAAAUAGUCUUGCGCUCAACCAGAAAGACUGUAAUCAUUUUAAGGGUA: the self-cleavage is 1.77.

On to GUUAUCGGUCAUAGGCCAUGGAAACUAGGAGCACCAUUUCGCUGCCAGUGAAGAAAUGAACAAAGAAAAUCUGGGCCAGGCAGGCAUCAAAAGAAAUAGUCUUGCGCUCAGCCAGAAAGUCUGUAAUCAUUUUAAGGGUA, for which the self-cleavage came to 0.06.

As for GUUAGCGGUCAUAGGCCAUGGAAACUAGGAGCACCAUUUCGCUGCCAGUGAAGAAAUGAACAAAGAAAAUCUGGGCCAGGCAGGCAUCAAAAGAAAUAGUCCUGCGCUCAACCAGAAAGUCUGUAAUCAUUUUAAGGGUA, the self-cleavage is 1.34.

As for GUUAUCGGUCAUAGGCCACGGAAACUAGGAGCACCAUUUCGCUGCCAGUGAAGAAAUGAACAAAGAAAAUCUGGGCCAGGCAGGCAUCAAAAGAAAUAGUCUUGCGCUCAACCAGAAAGUCUGUAAUCAUUUUAAGGGUA, the self-cleavage is 1.4.

Take GUUAGCGGUCAUAGGCCAUGGAAACUAGGAGCACCAUUUCGCUGCCAGUGAAGAAAUGAACAAAGAAAAUCUGGGCCAGGCAGGCAUCAAAAGAAAUAGUCUUGCGCUCAACCAGAAAGUCUGUAAUCACUUUAAGGGUA: the self-cleavage is 1.01.

With GUUAUCGGUCAUAGGCCAUGGAAACUAGGAGCACCAUUUCGCUGCCAGUGAAGAAGUGAACAAAGAAAAUCUGGGCCAGGCAGGCAUCAAAAGAAAUAGUCUUGCGCUCAACCAGAAAGUCUGUAAUCAUUUUAAGGGUA, the self-cleavage is 1.76.

As to GUUAUCGGUCAUAGGCCAUGGAAACUAGGAGCACCAUUUCGCUGCCAGUGAAGAAUUGAACAAAGAAAAUCUGGGCCAGGCAGGCAUCAAAAGAAAUAGUCUUGCGCUCAACCAGAAAGUCUGUAAUCAUUUUAAGGGUA, the self-cleavage amounted to 1.15.

As for GUUAUUGGUCAUAGGCCAUGGAAACUAGGAGCACCAUUUCGCUGCCAGUGAAGAAAUGAACAAAGAAAAUCUGGGCCAGGCAGGCAUCAAAAGAAAUAGUCUUGCGCUCAACCAGAAAGUCUGUAAUCAUUUUAAGGGUA, the self-cleavage is 1.27.

Consider GUUAUCGGUCAUAGGCCAUGGAAACUAGGAGCACCAUUUCGCAGCCAGUGAAGAAAUGAACAAAGAAAAUCUGGGCCAGGCAGGCAUCAAAAGAAAUAGUCUUGCGCUCAACCAGAAAGUCUGUAAUCAUUUUAAGGGUA, for which the self-cleavage was determined as 2.16.

GUUAUCGGUCAUAGGCCAUGGAAACUAGGAGCACCAUUUCGCUGCCAGUGAAGAAAUGAACAAAGAAAAUCUGGGCCAGGCAGGCAUCAAAAGAGAUAGUCUUGCGCUCAACCAGAAAGUCUGUAAUCAUUUUAAGGGUA: the self-cleavage amounted to 1.59.

For GUUAGCGGUCAUAGGCCAUGGAAACUAGGAGCACCAUUUCGCUGCCAGUGAAGAAAUGAACAAAGAAAAUCUGGGCCAGGCAGGCAUCAAAAGAAAUAGCCUUGCGCUCAACCAGAAAGUCUGUAAUCAUUUUAAGGGUA, the self-cleavage came out at 1.11.

Take GUUAUCGGUCAUAGGCCAUGGAAACUAGGAGCACCAUUUCGCUUCCAGUGAAGAAAUGAACAAAGAAAAUCUGGGCCAGGCAGGCAUCAAAAGAAAUAGUCUUGCGCUCAACCAGAAAGUCUGUAAUCAUUUUAAGGGUA: the self-cleavage worked out at 0.8.

Regarding GUUAUCGGUCAUAGGCCAUGGAAACUAGUAGCACCAUUUCGCUGCCAGUGAAGAAAUGAACAAAGAAAAUCUGGGCCAGGCAGGCAUCAAAAGAAAUAGUCUUGCGCUCAACCAGAAAGUCUGUAAUCAUUUUAAGGGUA, the self-cleavage is 1.39.

In the case of GUUAUCGGUCAUAGGCCAUGGAAACUAGAAGCACCAUUUCGCUGCCAGUGAAGAAAUGAACAAAGAAAAUCUGGGCCAGGCAGGCAUCAAAAGAAAUAGUCUUGCGCUCAACCAGAAAGUCUGUAAUCAUUUUAAGGGUA, the self-cleavage turned out to be 1.2.
